Legend:
[1] = target: T1, biotinylated murine 4-1BB Fc(kih) (murine, UniProt P20334 24-187, biotinylated); assay: SPR (Biacore T200, 25 C): biotinylated murine 4-1BB Fc(kih) on SA chip, construct at 200 nM as first analyte, murine FAP at 500 nM as second analyte
T1 construct: also called immobilized murine 4-1BB
T1 sequence: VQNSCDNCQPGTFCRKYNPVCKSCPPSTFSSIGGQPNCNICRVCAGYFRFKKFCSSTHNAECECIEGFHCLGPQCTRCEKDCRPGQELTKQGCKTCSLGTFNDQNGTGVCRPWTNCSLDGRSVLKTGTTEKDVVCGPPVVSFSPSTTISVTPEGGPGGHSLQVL

murine FAP = target: T2, murine FAP (mouse, UniProt P97321 27-761); assay: SPR simultaneous binding, figure legend (FIG. 2C)
T2 construct: also called mouse FAP
Protocol: The capacity of binding simultaneously murine 4-1BB Fc(kih) and murine FAP was assessed by surface plasmon resonance (SPR) in the manner as described in WO 2016/075278 A1. All SPR experiments were performed on a Biacore T200 at 25° C. with HBS-EP as running buffer (0.01 M HEPES pH 7.4, 0.15 M NaCl, 3 mM EDTA, 0.005% Surfactant P20, Biacore, Freiburg/Germany). Biotinylated murine 4-1BB Fc(kih) was directly coupled to a flow cell of a streptavidin (SA) sensor chip. Immobilization levels up to 600 resonance units (RU) were used.
The FAP-targeted 4-1BB constructs were passed at a concentration range of 200 nM with a flow of 30 μL/minute through the flow cells over 90 seconds and dissociation was set to zero sec. Murine FAP was injected as second analyte with a flow of 30 μL/minute through the flow cells over 90 seconds at a concentration of 500 nM. The dissociation was monitored for 120 sec. Bulk refractive index differences were corrected for by subtracting the response obtained in a reference flow cell, where no protein was immobilized.

T2 sequence (P97321 27-761 limits assumed): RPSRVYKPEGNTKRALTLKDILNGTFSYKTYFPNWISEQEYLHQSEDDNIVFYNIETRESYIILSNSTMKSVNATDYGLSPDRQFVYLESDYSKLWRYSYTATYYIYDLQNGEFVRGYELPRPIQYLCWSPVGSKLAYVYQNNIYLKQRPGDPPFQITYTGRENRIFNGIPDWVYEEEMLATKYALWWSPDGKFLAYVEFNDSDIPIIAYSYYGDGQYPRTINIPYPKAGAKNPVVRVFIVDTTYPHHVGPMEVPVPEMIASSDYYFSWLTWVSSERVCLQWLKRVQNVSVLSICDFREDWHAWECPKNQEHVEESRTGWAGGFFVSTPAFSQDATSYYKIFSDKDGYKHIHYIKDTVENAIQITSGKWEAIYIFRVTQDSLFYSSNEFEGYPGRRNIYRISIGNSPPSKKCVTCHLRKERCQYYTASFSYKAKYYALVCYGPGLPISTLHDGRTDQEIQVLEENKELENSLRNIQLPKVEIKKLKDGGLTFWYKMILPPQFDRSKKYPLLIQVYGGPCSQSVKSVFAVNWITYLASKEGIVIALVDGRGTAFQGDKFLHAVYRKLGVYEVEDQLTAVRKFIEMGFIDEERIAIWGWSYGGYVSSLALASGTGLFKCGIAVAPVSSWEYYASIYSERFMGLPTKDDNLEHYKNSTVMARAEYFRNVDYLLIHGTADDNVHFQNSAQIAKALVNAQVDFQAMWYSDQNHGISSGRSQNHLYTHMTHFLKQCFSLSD

B1: 4-1BB (MU137-1)/FAP(28H1) DAPG IgG1 2+1 (Fc-DD-VL), named muFAP-4-1BB (bispecific antibody)
heavy 1: DVQLVESGGGLVQPGRSLKLSCAASGFIFSYFDMAWVRQAPTKGLEWVASISPSGDIPYYRDSVKGRFTVSRENAKSSLYLQMDSLRSEDTATYYCARRSYGGYSELDYWGQGVMVTVSSAKTTPPSVYPLAPGSAAQTNSMVTLGCLVKGYFPEPVTVTWNSGSLSSGVHTFPAVLQSDLYTLSSSVTVPSSTWPSQTVTCNVAHPASSTKVDKKIVPRDCGCKPCICTVPEVSSVFIFPPKPKDVLTITLTPKVTCVVVAISKDDPEVQFSWFVDDVEVHTAQTKPREEQINSTFRSVSELPIMHQDWLNGKEFKCRVNSAAFGAPIEKTISKTKGRPKAPQVYTIPPPKEQMAKDKVSLTCMITNFFPEDITVEWQWNGQPAENYDNTQPIMDTDGSYFVYSDLNVQKSNWEAGNTFTCSVLHEGLHNHHTEKSLSHSPGGGGGSGGGGSGGGGSGGGGSEIVLTQSPGTLSLSPGERATLSCRASQSVSRSYLAWYQQKPGQAPRLLIIGASTRATGIPDRFSGSGSGTDFTLTISRLEPEDFAVYYCQQGQVIPPTFGQGTKVEIK
heavy 2: DVQLVESGGGLVQPGRSLKLSCAASGFIFSYFDMAWVRQAPTKGLEWVASISPSGDIPYYRDSVKGRFTVSRENAKSSLYLQMDSLRSEDTATYYCARRSYGGYSELDYWGQGVMVTVSSAKTTPPSVYPLAPGSAAQTNSMVTLGCLVKGYFPEPVTVTWNSGSLSSGVHTFPAVLQSDLYTLSSSVTVPSSTWPSQTVTCNVAHPASSTKVDKKIVPRDCGCKPCICTVPEVSSVFIFPPKPKDVLTITLTPKVTCVVVAISKDDPEVQFSWFVDDVEVHTAQTKPREEQINSTFRSVSELPIMHQDWLNGKEFKCRVNSAAFGAPIEKTISKTKGRPKAPQVYTIPPPKKQMAKDKVSLTCMITNFFPEDITVEWQWNGQPAENYKNTQPIMKTDGSYFVYSKLNVQKSNWEAGNTFTCSVLHEGLHNHHTEKSLSHSPGGGGGSGGGGSGGGGSGGGGSEVQLLESGGGLVQPGGSLRLSCAASGFTFSSHAMSWVRQAPGKGLEWVSAIWASGEQYYADSVKGRFTISRDNSKNTLYLQMNSLRAEDTAVYYCAKGWLGNFDYWGQGTLVTVSS
light: DIQMTQSPASLSASLEEIVTITCQASQDIGNWLAWYHQKPGKSPQLLIYGTSSLADGVPSRFSGSSSGSQYSLKISRLQVEDIGIYYCLQAYGAPWTFGGGTKLELKRADAAPTVSIFPPSSEQLTSGGASVVCFLNNFYPKDINVKWKIDGSERQNGVLNSWTDQDSKDSTYSMSSTLTLTKDEYERHNSYTCEATHKTSTSPIVKSFNRNEC
notes: Mouse IgG1 DAPG (D265A, P329G) with DDKK heterodimerisation; It has two anti-mouse-4-1BB Fabs (MU137-1) and one anti-FAP (28H1) VH/VL fused to the Fc C-termini; also called mouse surrogate muFAP-4-1BB; murine bispecific FAP-4-1BB antibody
binding result [1]: binds
binding result (murine FAP): binds

Source: US20210095002A1 (Hoffmann-La Roche, published 2021)
